This note sets out measurements from patent US20240092867A1 (UNIVERSITY OF CHICAGO, published 2024).

Assay [1] addresses T1, human plasma-derived vWF (human, UniProt P04275 764-2813).
T1 construct: mature; also called plasma-derived purified vWF; von Willebrand factor
As to the kind of experiment: SPR, vWF immobilised, GF flowed, heterogeneous ligand-parallel reactions fit. The protocol: (§1) A450 nm represents absorbance at 450 nm. Signals from VEGF-A121 served as a baseline, and bovine serum albumin (BSA) served as a negative control (n=4, mean±SD). […] Experimental curves were fitted with (C) 1:1 Langmuir fit model and (D) heterogeneous ligand-parallel reactions binding.
(§2) SPR assays were performed as described previously2. In brief, measurements were made with a Biacore X100 SPR system or Biacore 3000 SPR system (GE Healthcare). […] Recombinant human VEGF-A165, VEGF-A121, or PDGF-BB was flowed at increasing concentrations in the running buffer at 30 μL/min. The sensor chip was regenerated with glycine at pH 2 for every cycle.

Assay [2] deals with T1, human plasma-derived vWF. As to the kind of experiment: SPR; plasma-derived vWF immobilised (~2000 RU), PDGF-BB flowed at 25-200 nM; heterogeneous ligand-parallel reactions fit, site 1 [panel D]. The protocol:
as §1, §2

Assay [3] concerns the target T2, laminin-521 (human, UniProt O15230 36-3695; P55268 33-1798; P11047 34-1609).
T2 construct: Full-length recombinant human laminin isoform (BioLamina); chains read from the isoform name
As to the kind of experiment: SPR, laminin-521 immobilised, GF flowed, Langmuir fit. The protocol:
(§3) A450 nm represents absorbance at 450 nm. BSA-coated wells served as negative controls (n=4, mean±SEM). Signals greater than 0.1 (grey box) are considered to be significant. […] Experimental curves were fitted with Langmuir binding kinetics.
(§4) The obtained binding curves were fitted with Langmuir binding kinetics to calculate specific dissociation constants (KD) (FIG. 1B).
(§5) SPR analysis was performed as described previously². In brief, measurements were made with a Biacore 3000 SPR system (GE Healthcare). […] VEGF-A165, PDGF-BB, or PlGF-2 was flowed at increasing concentrations in the running buffer at 20 μL/min. The sensor chip was regenerated with 50 mM NaOH for every cycle. Specific bindings of GFs to laminin were calculated by comparison to a non-functionalized channel used as a reference. Experimental results were fitted with Langmuir binding kinetics using BIAevaluation software (GE Healthcare).

Assay [4] has as its target T1, human plasma-derived vWF. The experiment in a line: SPR; plasma-derived vWF immobilised (~2000 RU), PDGF-BB flowed at 25-200 nM; heterogeneous ligand-parallel reactions fit, site 2 [panel D]. The protocol: as §1, §2
Assay [5] deals with T3, recombinant laminin α3 2928-3150 protein (linker domain and LG4 domain) (human, UniProt Q16787 2928-3150).
T3 construct: range 2928-3150; Made in HEK-293F cells; also called laminin alpha 3 LG domain recombinant protein
T3 sequence: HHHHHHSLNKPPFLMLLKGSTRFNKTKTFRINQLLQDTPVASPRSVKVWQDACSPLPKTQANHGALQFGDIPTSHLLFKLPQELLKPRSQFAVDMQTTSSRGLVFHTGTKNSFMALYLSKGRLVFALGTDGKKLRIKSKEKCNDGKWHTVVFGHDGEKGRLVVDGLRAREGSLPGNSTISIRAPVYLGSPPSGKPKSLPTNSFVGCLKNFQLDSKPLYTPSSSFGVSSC
As to the kind of experiment: SPR; α3 2928-3150 recombinant protein immobilised (~1000 RU), PDGF-BB flowed at 0.325-41.6 nM; Langmuir fit [panel D]. The text has this: (§6) Statistical analyses were done using the Mann-Whitney U test by comparing the signals obtained from the laminin domain- and the BSA-coated wells. *p<0.05, **p<0.01. […] A SPR chip was functionalized with the laminin α3₂₉₂₈₋₃₁₅₀ recombinant protein (˜1000 RU), and each GF was flowed over the chip at indicated concentrations. Curves represent the specific responses (in RU) to laminin. Experimental curves were fitted with Langmuir binding kinetics.
(§7) Because the GFs that bound to laminins have also been previously reported to bind to other ECM glycoproteins through HBDs, it was hypothesized that HBDs of laminins might be responsible for the interactions between GFs and laminin. To address this hypothesis, ELISA assays were repeated for VEGF-A165, PlGF-2 or FGF-2 in the presence of heparin added in excess (10 μM). […] To further confirm this, the inventors tested direct GF binding to the LG domains from human laminin α3, α4 and α5, within which HBDs of laminin were localized.
SPR analysis was performed as described previously². In brief, measurements were made with a Biacore 3000 SPR system (GE Healthcare). […] VEGF-A165, PDGF-BB, or PlGF-2 was flowed at increasing concentrations in the running buffer at 20 μL/min. The sensor chip was regenerated with 50 mM NaOH for every cycle.
On the technique in general: Surface plasmon resonance follows binding to a sensor surface in real time, without labels.

Assay [6] concerns the target T2, laminin-521. The experiment in a line: SPR; laminin-521 immobilised on the chip (~2000 RU), PDGF-BB flowed at 25-200 nM; Langmuir fit. The protocol: as §3, §4, §5
Assay [7] addresses T4, laminin-111 (human, UniProt P25391 18-3075; P07942 22-1786; P11047 34-1609).
T4 construct: Full-length recombinant human laminin isoform (BioLamina); Chain composition is read from the isoform name
The experiment in a line: ELISA, GF coated, laminin 10 nM. On the technique in general: ELISA stands for enzyme-linked immunosorbent assay.

The target in assay [8] is T5, laminin-211 (human, UniProt P24043 23-3122; P07942 22-1786; P11047 34-1609).
T5 construct: Full-length recombinant human laminin isoform (BioLamina); chains read from the isoform name
As to the kind of experiment: ELISA, GF coated, laminin 10 nM.

In assay [9] the target is T6, laminin-421 (human, UniProt Q16363 25-1823; P55268 33-1798; P11047 34-1609).
T6 construct: Full-length recombinant human laminin isoform (BioLamina); chains read from the isoform name
As to the kind of experiment: ELISA, GF coated, laminin 10 nM.

The target of assay [10] is T7, laminin-411 (human, UniProt Q16363 25-1823; P07942 22-1786; P11047 34-1609).
T7 construct: Full-length recombinant human laminin isoform (BioLamina); chains read from the isoform name
T7 sequence (Q16363 25-1823 limits assumed, chain 1 of 3): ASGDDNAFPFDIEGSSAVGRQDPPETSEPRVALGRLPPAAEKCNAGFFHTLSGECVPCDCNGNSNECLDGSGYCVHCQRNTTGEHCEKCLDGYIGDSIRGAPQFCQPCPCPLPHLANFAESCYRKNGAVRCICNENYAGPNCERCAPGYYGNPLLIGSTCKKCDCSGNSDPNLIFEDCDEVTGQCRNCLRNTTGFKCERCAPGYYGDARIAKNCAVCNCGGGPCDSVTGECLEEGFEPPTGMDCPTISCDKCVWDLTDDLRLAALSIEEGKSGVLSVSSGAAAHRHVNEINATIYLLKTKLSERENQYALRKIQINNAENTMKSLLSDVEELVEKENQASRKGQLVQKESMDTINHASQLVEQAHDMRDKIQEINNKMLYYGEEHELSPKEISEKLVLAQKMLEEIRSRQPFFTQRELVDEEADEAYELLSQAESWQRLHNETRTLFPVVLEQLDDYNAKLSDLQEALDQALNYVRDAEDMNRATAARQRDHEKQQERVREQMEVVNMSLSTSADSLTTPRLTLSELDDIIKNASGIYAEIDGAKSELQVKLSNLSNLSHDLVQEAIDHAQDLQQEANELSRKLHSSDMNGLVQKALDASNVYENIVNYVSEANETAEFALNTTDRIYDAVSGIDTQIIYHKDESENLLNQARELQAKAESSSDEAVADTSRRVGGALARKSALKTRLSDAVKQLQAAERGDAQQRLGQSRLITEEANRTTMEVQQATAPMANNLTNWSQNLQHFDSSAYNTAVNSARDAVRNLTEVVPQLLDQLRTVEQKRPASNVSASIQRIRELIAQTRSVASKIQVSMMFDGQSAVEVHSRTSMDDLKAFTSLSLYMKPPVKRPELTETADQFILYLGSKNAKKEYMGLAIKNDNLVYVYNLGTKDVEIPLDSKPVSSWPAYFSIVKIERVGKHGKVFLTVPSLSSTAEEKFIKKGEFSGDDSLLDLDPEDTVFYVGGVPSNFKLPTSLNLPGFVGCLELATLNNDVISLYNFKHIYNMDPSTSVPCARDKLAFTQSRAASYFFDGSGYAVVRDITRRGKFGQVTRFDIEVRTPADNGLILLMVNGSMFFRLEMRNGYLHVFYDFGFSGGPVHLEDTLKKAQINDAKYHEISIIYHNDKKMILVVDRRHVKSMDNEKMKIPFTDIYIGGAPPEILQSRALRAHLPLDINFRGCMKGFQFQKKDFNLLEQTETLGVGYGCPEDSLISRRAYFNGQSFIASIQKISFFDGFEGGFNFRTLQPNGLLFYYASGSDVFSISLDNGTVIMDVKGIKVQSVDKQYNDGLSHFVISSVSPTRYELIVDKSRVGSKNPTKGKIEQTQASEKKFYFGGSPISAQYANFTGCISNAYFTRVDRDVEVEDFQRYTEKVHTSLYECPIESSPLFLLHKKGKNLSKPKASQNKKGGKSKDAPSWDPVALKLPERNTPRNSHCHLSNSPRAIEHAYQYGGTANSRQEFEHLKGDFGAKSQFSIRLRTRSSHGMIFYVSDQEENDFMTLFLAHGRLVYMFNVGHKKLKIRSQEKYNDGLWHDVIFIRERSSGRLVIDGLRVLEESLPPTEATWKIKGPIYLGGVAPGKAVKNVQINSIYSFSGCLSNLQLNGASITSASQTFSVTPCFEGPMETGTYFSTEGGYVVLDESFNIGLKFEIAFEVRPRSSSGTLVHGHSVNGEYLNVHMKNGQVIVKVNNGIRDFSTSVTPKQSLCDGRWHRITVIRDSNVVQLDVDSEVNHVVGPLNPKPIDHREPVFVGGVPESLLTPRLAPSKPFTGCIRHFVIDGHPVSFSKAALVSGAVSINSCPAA
T7 sequence (P07942 22-1786 limits assumed, chain 2 of 3): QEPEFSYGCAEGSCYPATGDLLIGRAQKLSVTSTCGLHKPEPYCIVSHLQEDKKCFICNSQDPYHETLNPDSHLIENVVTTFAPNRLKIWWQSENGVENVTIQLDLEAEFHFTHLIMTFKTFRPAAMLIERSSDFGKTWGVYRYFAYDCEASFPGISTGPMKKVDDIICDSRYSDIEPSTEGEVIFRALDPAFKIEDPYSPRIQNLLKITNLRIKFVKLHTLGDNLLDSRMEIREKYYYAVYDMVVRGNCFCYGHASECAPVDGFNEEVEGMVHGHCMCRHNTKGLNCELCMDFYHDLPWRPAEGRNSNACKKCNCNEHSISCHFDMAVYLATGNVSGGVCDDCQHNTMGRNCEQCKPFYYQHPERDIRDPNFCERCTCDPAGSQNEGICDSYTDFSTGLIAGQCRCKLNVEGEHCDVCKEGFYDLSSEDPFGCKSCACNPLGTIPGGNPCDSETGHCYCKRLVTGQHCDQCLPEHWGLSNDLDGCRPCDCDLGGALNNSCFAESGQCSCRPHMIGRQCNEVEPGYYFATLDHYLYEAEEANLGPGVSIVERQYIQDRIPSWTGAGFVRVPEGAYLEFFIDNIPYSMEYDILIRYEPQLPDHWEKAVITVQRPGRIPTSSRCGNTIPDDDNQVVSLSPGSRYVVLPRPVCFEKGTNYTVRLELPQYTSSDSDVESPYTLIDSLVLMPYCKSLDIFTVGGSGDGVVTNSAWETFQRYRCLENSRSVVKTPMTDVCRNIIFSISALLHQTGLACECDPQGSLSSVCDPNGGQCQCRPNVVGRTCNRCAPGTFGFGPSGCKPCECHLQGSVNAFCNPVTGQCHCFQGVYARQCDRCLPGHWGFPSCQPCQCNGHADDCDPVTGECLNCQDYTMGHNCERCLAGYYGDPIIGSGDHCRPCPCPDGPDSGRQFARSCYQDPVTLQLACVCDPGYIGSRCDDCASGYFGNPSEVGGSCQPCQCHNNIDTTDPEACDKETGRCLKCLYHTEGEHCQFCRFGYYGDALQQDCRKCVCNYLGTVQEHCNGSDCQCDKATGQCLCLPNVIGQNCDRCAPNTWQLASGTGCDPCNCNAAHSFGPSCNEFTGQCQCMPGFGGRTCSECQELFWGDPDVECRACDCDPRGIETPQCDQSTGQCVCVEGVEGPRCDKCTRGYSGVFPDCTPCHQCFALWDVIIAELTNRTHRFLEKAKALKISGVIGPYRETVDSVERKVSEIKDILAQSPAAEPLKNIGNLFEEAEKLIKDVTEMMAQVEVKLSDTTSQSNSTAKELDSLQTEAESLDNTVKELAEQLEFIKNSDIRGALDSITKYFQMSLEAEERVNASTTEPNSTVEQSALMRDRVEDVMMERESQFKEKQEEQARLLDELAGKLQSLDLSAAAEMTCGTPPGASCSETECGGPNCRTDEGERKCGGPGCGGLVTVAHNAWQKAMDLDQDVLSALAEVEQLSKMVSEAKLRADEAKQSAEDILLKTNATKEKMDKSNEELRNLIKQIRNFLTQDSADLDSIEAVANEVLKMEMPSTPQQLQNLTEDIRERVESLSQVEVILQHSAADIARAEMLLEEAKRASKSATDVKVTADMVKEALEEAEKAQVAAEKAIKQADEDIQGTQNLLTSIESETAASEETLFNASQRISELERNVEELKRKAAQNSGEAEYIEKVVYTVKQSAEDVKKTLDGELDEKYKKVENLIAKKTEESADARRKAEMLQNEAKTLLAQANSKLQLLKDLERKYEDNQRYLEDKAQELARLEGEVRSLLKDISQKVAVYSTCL
T7 sequence (P11047 34-1609 limits assumed, chain 3 of 3): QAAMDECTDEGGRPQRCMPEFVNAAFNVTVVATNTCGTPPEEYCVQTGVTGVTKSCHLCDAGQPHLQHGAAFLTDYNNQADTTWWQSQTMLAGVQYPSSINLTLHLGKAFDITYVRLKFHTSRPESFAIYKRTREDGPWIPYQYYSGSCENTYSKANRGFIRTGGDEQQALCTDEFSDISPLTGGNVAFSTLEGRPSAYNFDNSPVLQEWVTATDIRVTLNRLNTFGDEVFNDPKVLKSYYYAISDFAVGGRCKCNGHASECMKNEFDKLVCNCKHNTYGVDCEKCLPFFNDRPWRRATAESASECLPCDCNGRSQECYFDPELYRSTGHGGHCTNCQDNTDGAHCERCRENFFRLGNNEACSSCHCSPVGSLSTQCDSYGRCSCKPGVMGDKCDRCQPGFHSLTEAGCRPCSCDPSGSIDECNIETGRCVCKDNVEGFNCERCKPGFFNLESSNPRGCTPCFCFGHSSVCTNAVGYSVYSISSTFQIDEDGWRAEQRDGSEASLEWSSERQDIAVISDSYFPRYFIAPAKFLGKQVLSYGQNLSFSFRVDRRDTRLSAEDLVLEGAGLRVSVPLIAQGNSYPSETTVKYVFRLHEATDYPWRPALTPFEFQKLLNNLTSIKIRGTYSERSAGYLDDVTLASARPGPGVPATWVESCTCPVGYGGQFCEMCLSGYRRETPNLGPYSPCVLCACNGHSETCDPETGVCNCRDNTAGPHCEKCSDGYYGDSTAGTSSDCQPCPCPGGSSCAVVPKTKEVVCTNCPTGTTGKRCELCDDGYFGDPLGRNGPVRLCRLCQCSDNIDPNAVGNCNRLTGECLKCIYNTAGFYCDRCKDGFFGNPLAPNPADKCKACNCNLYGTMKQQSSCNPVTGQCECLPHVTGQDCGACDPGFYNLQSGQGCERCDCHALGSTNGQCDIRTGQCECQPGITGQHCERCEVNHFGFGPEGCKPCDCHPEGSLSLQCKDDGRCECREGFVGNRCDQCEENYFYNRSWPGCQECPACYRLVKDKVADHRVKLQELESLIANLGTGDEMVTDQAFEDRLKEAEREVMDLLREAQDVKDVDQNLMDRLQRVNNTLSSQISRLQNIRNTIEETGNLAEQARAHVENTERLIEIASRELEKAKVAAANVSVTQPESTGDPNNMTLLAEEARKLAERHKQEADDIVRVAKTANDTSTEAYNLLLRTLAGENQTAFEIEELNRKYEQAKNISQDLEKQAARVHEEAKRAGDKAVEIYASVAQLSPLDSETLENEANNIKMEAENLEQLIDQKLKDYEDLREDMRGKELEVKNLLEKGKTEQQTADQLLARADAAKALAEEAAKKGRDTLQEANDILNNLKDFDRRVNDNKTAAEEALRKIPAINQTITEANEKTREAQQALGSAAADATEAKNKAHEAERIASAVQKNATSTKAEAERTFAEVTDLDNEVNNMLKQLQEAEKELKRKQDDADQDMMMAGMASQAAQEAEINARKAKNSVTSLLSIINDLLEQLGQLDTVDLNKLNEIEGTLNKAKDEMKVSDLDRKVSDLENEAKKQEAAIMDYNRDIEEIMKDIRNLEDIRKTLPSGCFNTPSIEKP
As to the kind of experiment: ELISA, GF coated, laminin 10 nM.

Assay [11] deals with T3, recombinant laminin α3 2928-3150 …. As to the kind of experiment: SPR, α3 2928-3150 immobilised, GF flowed, Langmuir fit. The protocol: as §6, with “Affinity of GFs against recombinant laminin LG domains. ELISA plates were coated with 1 μg/mL (A) α3₂₉₂₈₋₃₁₅₀, (B) α4₈₂₆₋₁₈₁₆, or (C) α5₃₀₂₆₋₃₄₈₂ and further incubated with 1 μg/mL of VEGF-A165, VEGF-A121, PlGF-2, PlGF-1, PDGF-BB, or FGF-2 solution. Bound GFs were detected using a specific antibody for each GF (n=4, mean±SEM). Statistical” for “Statistical”
as §7
SPR analysis was performed as described previously². […]

The target in assay [12] is T4, laminin-111. The experiment in a line: ELISA; plate coated with 10 µg/mL laminin, 1 µg/mL PlGF-2 in solution without or with 10 µM heparin, bound GF detected with antibody [panel B]. The protocol: (§8) FIGS. 2A-C. […] ELISA plates were coated with 10 μg/mL laminin and further incubated with a 1 μg/mL (A) VEGF-A165, (B) PlGF-2, or (C) FGF-2 solution in the absence or presence of excess (10 μM) heparin. Bound GFs were detected using a specific antibody for each GF (n=4, mean±SEM). Statistical analyses were done using the Mann-Whitney U test by comparing the signals with and without heparin. *p<0.05, **p<0.01.
as §7

Assay [13] concerns the target T5, laminin-211. The assay is described as above. The protocol: as §8, §7
The target in assay [14] is T6, laminin-421. The assay is described as above. The protocol: as §8, §7
Assay [15] deals with T7, laminin-411. The assay is described as above. The protocol: as §8, §7
In assay [16] the target is T3, recombinant laminin α3 2928-3150 …. As to the kind of experiment: ELISA, LG domain protein coated, GF 1 µg/mL. The protocol:
as §6, with “Affinity of GFs against recombinant laminin LG domains. ELISA plates were coated with 1 μg/mL (A) α3₂₉₂₈₋₃₁₅₀, (B) α4₈₂₆₋₁₈₁₆, or (C) α5₃₀₂₆₋₃₄₈₂ and further incubated with 1 μg/mL of VEGF-A165, VEGF-A121, PlGF-2, PlGF-1, PDGF-BB, or FGF-2 solution. Bound GFs were detected using a specific antibody for each GF (n=4, mean±SEM). Statistical” for “Statistical”
ELISA tests were performed as described above. […] 1 μg/mL of BSA served as non-binding protein control. After blocking with 2% BSA PBS-0.05% Tween 20 (PBS-T) solution, 1 μg/mL of the recombinant human proteins (VEGF-A121, VEGF-A165, PlGF-1, PlGF-2, PDGF-BB or FGF-2) or 10 μg/mL of biotinylated heparin (Sigma-Aldrich) were added. Bound GF was detected with biotinylated antibodies for human VEGF, PlGF, PDGF-BB, or FGF-2 (R&D Systems). The antibodies were detected by streptavidin-HRP (R&D Systems).

Assay [17] concerns the target T8, recombinant human vWF A1 domain (human, UniProt P04275 1261-1468, limits assumed).
T8 construct: domain: A1; also called vWF A1 recombinant protein; recombinant A1 domain
The experiment in a line: ELISA, A1 domain coated, GF 1 µg/mL. The protocol: ELISA tests were performed as described above. […] After blocking with 2% BSA solution containing PBS-T, 1 μg/mL of the recombinant human proteins VEGF-A121, VEGF-A165, PlGF-1, PlGF-2, PDGF-BB, FGF-2, CXCL-12α and CXCL-12γ were added. 1 μg/mL of BSA served as non-binding protein control. Bound GF or chemokine was detected with biotinylated antibodies for human VEGF-A, PlGF, PDGF-BB, FGF-2, or CXCL-12 (R & D Systems). The antibodies were detected by streptavidin-HRP (R & D Systems). Color development and the absorbance measurement were done as described above.

The target in assay [18] is T1, human plasma-derived vWF. As to the kind of experiment: ELISA, GF coated 50 nM, vWF 1 µg/mL.
The target of assay [19] is T2, laminin-521. The experiment in a line: SPR; laminin-521 immobilised on the chip (~2000 RU), PlGF-2 flowed at 20-75 nM; Langmuir fit. The protocol:
as §3, §4, §5

B1: platelet-derived growth factor (PDGF)-BB (ligand, human, UniProt P01127 82-190, looked up)
chain: SLGSLTIAEPAMIAECKTRTEVFEISRRLIDRTNANFLVWPPCVEVQRCSGCCNNRNVQCRPTQVQLRPVQVRKIEIVRKKPIFKKATVTLEDHLACKCETVAAARPVT
notes: mature; Purchased in mature form
Consider B1, for which the Kd (as a rule, the concentration at which binding is half-saturated) with human plasma-derived vWF [1] was 24 nM; in the assay with human plasma-derived vWF [2], 154 nM; with laminin-521 [3] it was 24.2 nM; with human plasma-derived vWF [4], 23.8 nM; in [5], 12.1 nM; in [11], 10.2 nM. Moreover, the off-rate constant (koff) (in general, the first-order rate constant of dissociation) with human plasma-derived vWF [2] was determined as 0.0664 s⁻¹; with human plasma-derived vWF [4], 0.00508 s⁻¹; in assay [5] it was 0.0136 s⁻¹; with laminin-521 [6], 0.00497 s⁻¹. Further, the kon (in general, the rate constant with which the complex forms) is 430000 M⁻¹ s⁻¹ with human plasma-derived vWF [2], 213000 M⁻¹ s⁻¹ with human plasma-derived vWF [4], 1.12e+06 M⁻¹ s⁻¹ in [5] and 206000 M⁻¹ s⁻¹ with laminin-521 [6]. The binding result with laminin-111 [7], with laminin-211 [8], with laminin-421 [9] and in the assay with laminin-411 [10] was “binds” in each case.

B2: placental growth factor (PlGF)-2 (ligand, human, UniProt P49763-3 19-170, looked up)
chain: LPAVPPQQWALSAGNGSSEVEVVPFQEVWGRSYCRALERLVDVVSEYPSEVEHMFSPSCVSLLRCTGCCGDENLHCVPVETANVTMQLLKIRSGDRPSYVELTFSQHVRCECRPLREKMKPERRRPKGRGKRRREKQRPTDCHLCGDAVPRR
notes: as for B1
Regarding B2, the binding result (in the assay with laminin-111 [12]; with laminin-211 [13]; with laminin-421 [14]; with laminin-411 [15]; in [16]; in [17]) was “binds” in each case. Also, the binding result in the assay with human plasma-derived vWF [18] is recorded as “binds”. In the assay with laminin-521 [3], this molecule yielded a Kd of 12.9 nM. For the same molecule, in the assay with laminin-521 [19], the koff worked out at 0.0246 s⁻¹. Also, the kon in the assay with laminin-521 [19] amounted to 1.91e+06 M⁻¹ s⁻¹.
